Assay results taken from publication PMC8708005, “Poly(C)-binding Protein 2 Regulates the p53 Expression via Interactions with the 5′-Terminal Region of p53 mRNA”.

Legend:
[1] = target: T1, PCBP2 (poly(C)-binding protein 2, hnRNP E2) (UniProt Q15366 1-365); test: EMSA; 4 °C 25 min, 2.5 mM Mg2+; additional intermediate complexes; text also reports decreased binding ability at fixed protein (Fig 3c); EMSA: 25 mM NaH2PO4 pH 8.0, 50 mM NaCl, 25 mM KCl, 2.5 mM MgCl2, 10 mM imidazole, 0.5 mM DTT, 0.5 mM PMSF, 7% glycerol, 0.5 U/uL RNasin, 75 ng/uL BSA, 100 ng/uL yeast tRNA; 4 °C 25 min (also 25 °C 15 min, 37 °C 10 min); conditions: protein: recombinant; label: 5'-32P; shortened hairpin; C74-G144 pair replaces U57-G168
[2] = target: T1, PCBP2 (poly(C)-binding protein 2, hnRNP …); test: EMSA; 4 °C 25 min, 2.5 mM Mg2+, yeast tRNA and BSA; EMSA: 25 mM NaH2PO4 pH 8.0, 50 mM NaCl, 25 mM KCl, 2.5 mM MgCl2, 10 mM imidazole, 0.5 mM DTT, 0.5 mM PMSF, 7% glycerol, 0.5 U/uL RNasin, 75 ng/uL BSA, 100 ng/uL yeast tRNA; 4 °C 25 min (also 25 °C 15 min, 37 °C 10 min); conditions: protein: recombinant; label: 5'-32P (EMSA); hairpins G56-C169 and U180-A218
[3] = target: T1, PCBP2 (poly(C)-binding protein 2, hnRNP …); test: EMSA; 1000 and 2500 nM PCBP2, 4 °C; no change vs P1-Δ40p53; EMSA: 25 mM NaH2PO4 pH 8.0, 50 mM NaCl, 25 mM KCl, 2.5 mM MgCl2, 10 mM imidazole, 0.5 mM DTT, 0.5 mM PMSF, 7% glycerol, 0.5 U/uL RNasin, 75 ng/uL BSA, 100 ng/uL yeast tRNA; 4 °C 25 min (also 25 °C 15 min, 37 °C 10 min); conditions: protein: recombinant, label: 5'-32P
[4] = target: T1, PCBP2 (poly(C)-binding protein 2, hnRNP …); test: EMSA; no complex at 4-4000 nM; smeared shift at 5 and 10 uM; EMSA: 25 mM NaH2PO4 pH 8.0, 50 mM NaCl, 25 mM KCl, 2.5 mM MgCl2, 10 mM imidazole, 0.5 mM DTT, 0.5 mM PMSF, 7% glycerol, 0.5 U/uL RNasin, 75 ng/uL BSA, 100 ng/uL yeast tRNA; 4 °C 25 min (also 25 °C 15 min, 37 °C 10 min); conditions: protein: recombinant; label: 5'-32P; hairpin

T1 sequence (Q15366 whole entry): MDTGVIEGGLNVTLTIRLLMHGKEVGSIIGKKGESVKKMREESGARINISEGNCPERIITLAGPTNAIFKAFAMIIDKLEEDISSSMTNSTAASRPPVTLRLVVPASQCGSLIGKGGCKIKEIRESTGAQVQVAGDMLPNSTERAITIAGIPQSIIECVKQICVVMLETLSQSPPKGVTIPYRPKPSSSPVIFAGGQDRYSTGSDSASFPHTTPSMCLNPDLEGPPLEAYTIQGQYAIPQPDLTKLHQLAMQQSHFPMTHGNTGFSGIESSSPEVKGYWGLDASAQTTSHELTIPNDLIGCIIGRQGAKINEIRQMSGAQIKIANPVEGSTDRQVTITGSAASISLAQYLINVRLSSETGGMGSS

B1: P1-Δ40p53(Δ57) RNA (structured_RNA)
RNA: GGCUAGAGCCACCGUCCAGGGAGCAGGUAGCUGCUGGGCUCCGGGGACACUUUGCGCUUUCCACGACGGUGACACGCUUCCCGGUCACUGCCAUGGAGGAGCCCCCUCUGAGUCAGGAAACAUUUUCAGACCUAUGGAAACUACUUCCUGAAAACAACGUUCUGUCCCCCUUGCCGUCCCAAGCAAUG
Kd [1]: 53 ± 6 nM

B2: P1-Δ40p53 RNA (structured_RNA)
RNA: GGCUAGAGCCACCGUCCAGGGAGCAGGUAGCUGCUGGGCUCCGGGGACACUUUGCGUUCGGGCUGGGAGCGUGCUUUCCACGACGGUGACACGCUUCCCUGGAUUGGCAGCCAGACUGCCUUCCGGGUCACUGCCAUGGAGGAGCCGCAGUCAGAUCCUAGCGUCGAGCCCCCUCUGAGUCAGGAAACAUUUUCAGACCUAUGGAAACUACUUCCUGAAAACAACGUUCUGUCCCCCUUGCCGUCCCAAGCAAUG
Kd [2]: 95 ± 6 nM

B3: P1-Δ40p53(S) RNA (structured_RNA)
RNA: GGCUAGAGCCACCGUCCAGGGAGCAGGUAGCUGCUGGGCUCCGGGGACACUUUGCGUUCGGGCUGGGAGCGUGCUUUCCAUGGCGGUGACACGCUUCCCUGGAUUGGCAGCCAGACUGCCUUCCGGGUCACUGCCAUGGAGGAGCCGCAGUCAGAUCCUAGCGUCGAGCCCCCUCUGAGUCAGGAAACAUUUUCAGACCUAUGGAAACUACUUCCUGAAAACAACGUUCUGUCCCCCUUGCCGUCCCAAGCAAUG
binding result ([3]; AUG1 in double-stranded region): binds

B4: P1-Δ40p53(L) RNA (structured_RNA)
RNA: GGCUAGAGCCACCGUCCAGGGAGCAGGUAGCUGCUGGGCUCCGGGGACACUUUGCGUUCGGGCUGGGAGCGUGCUUAAGCCGACGGUGACACGCUUCCCUGGAUUGGCAGCCAGACUGCCUUCCGGGUCACUGCCAUGGAGGAGCCGCAGUCAGAUCCUAGCGUCGAGCCCCCUCUGAGUCAGGAAACAUUUUCAGACCUAUGGAAACUACUUCCUGAAAACAACGUUCUGUCCCCCUUGCCGUCCCAAGCAAUG
binding result ([3]; AUG1 in internal loop): binds

B5: isolated hairpin G56-C169 RNA (structured_RNA)
RNA: GUUCGGGCUGGGAGCGUGCUUUCCACGACGGUGACACGCUUCCCUGGAUUGGCAGCCAGACUGCCUUCCGGGUCACUGCCAUGGAGGAGCCGCAGUCAGAUCCUAGCGUCGAGC
Kd [4]: > 4000 nM
